Source: PMC6375650 (2019)
Substitutions are numbered along the chain they refer to. Names and notes keep the numbering of the source.

B1: H7.5 Fab H-M73R (Fab, V domains shown)
VH: QVQLVQSGAEVKKPGASVKVSCKASGYTLTRYYFHWVRQAPGQGFEWMGIINPNGGGTSYAQKFGDRVIMTSDRSTSTIYMELSSLRSEDTAVYYCARDMPYYHDSGGPLFDLWGQGTLVTVSS
VL: EIVMTQSPSSLSASVGDRVTITCRPSQSISTFLNWYEQKPGKAPKLLIYDASSLQSGVPSRFSGSGSGTEFTLTISSLQPEDFATYYCQQSFSTPYTFGQGTRLEIK
B2: H7.5 Fab H-T57A (Fab, V domains shown)
VH: B1 VH with T58A, R74M
VL: B1 VL
B3: H7.5 Fab L-Y96A (Fab, V domains shown)
VH: B1 VH with R74M
VL: B1 VL with Y96A
B4: H7.5 Fab H-S58W (Fab, V domains shown)
VH: B1 VH with S59W, R74M
VL: B1 VL
B5: H7.5 Fab L-T94Q (Fab, V domains shown)
VH: B1 VH with R74M
VL: B1 VL with T94Q
B6: H7.5 Fab H-S74K (Fab, V domains shown)
VH: B1 VH with R74M, S75K
VL: B1 VL

Molecular target: H7 Sh2 HA (A/Shanghai/2/2013), ectodomain trimer, cleavage state not stated (influenza A virus (A/Shanghai/2/2013))
Assay: BLI

Binder | Kd [nM]
B1 | < 0.1
B2 | 116
B3 | 549
B4 | > 1000
B5 | > 1000
B6 | < 0.1
